Results published in PMC5490261, “The structural and functional characterization of human RecQ4 reveals insights into its helicase mechanism”.

How the values were obtained:
Details in all cases: protein: recombinant; tags: Trx-His6 removed by 3C protease; label: 5' Cy3
[1] = biological target: T1, RecQ4 427-1208 K843A/R844A/R848A (Homo sapiens, UniProt O94761 427-1208, K843A;R844A;R848A); experiment: fluorescence polarization; WT-like, low nM apparent Kd; 20 mM HEPES pH 8.0, 10 mM NaCl, 5% glycerol, 1 mM MgCl2, 0.5 mM TCEP, 0.5 nM Cy3-ssDNA; temperature not stated
T1 sequence: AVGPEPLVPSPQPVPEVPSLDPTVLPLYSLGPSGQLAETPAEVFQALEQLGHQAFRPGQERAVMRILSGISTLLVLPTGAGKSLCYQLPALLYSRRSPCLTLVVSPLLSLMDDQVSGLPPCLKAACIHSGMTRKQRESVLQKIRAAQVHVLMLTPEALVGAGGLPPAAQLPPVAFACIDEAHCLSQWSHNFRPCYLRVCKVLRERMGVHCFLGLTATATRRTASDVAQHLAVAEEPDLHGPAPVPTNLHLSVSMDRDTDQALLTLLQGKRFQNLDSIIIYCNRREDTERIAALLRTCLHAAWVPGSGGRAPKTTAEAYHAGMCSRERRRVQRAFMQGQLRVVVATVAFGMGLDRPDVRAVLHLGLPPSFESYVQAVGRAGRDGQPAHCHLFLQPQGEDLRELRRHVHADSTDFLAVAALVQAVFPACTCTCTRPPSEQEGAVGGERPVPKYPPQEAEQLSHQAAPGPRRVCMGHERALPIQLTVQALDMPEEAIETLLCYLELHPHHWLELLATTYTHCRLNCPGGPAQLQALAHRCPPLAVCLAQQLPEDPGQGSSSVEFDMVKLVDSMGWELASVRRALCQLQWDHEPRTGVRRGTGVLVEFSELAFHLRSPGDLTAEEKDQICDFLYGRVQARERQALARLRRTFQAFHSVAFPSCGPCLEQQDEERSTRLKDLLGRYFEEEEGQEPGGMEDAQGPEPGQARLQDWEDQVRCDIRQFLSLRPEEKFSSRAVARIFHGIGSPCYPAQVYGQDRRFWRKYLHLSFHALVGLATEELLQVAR

[2] = biological target: T2, RecQ4 427-1208 R894A/R895A (Homo sapiens, UniProt O94761 427-1208, R894A;R895A); experiment: as above
T2 sequence: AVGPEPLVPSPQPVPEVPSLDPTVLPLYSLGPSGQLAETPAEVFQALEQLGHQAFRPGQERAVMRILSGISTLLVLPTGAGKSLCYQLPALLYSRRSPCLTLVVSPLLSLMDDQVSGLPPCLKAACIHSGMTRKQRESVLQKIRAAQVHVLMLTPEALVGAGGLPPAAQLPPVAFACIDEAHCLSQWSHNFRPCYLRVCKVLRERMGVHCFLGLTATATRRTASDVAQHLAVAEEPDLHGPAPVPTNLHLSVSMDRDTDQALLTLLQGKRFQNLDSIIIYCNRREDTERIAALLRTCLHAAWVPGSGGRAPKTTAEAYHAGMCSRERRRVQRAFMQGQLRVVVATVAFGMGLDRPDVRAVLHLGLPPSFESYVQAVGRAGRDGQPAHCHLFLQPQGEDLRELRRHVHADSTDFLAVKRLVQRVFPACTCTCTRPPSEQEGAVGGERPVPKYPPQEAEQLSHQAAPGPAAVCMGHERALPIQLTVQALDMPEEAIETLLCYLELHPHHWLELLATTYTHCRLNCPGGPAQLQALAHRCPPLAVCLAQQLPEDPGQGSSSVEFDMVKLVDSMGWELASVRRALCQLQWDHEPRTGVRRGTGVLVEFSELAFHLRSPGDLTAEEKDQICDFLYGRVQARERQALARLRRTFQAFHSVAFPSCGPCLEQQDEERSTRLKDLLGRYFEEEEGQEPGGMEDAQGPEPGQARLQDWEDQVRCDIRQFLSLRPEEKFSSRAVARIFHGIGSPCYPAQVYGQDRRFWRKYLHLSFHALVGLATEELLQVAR

RecQ4 427-1208 F617L = biological target: T3, RecQ4 427-1208 F617L (Homo sapiens, UniProt O94761 427-1208, F617L); experiment: fluorescence polarization; WT-like affinity; figure values not assignable from text layer; 20 mM HEPES pH 8.0, 10 mM NaCl, 5% glycerol, 1 mM MgCl2, 0.5 mM TCEP, 0.5 nM Cy3-ssDNA; temperature not stated
T3 sequence: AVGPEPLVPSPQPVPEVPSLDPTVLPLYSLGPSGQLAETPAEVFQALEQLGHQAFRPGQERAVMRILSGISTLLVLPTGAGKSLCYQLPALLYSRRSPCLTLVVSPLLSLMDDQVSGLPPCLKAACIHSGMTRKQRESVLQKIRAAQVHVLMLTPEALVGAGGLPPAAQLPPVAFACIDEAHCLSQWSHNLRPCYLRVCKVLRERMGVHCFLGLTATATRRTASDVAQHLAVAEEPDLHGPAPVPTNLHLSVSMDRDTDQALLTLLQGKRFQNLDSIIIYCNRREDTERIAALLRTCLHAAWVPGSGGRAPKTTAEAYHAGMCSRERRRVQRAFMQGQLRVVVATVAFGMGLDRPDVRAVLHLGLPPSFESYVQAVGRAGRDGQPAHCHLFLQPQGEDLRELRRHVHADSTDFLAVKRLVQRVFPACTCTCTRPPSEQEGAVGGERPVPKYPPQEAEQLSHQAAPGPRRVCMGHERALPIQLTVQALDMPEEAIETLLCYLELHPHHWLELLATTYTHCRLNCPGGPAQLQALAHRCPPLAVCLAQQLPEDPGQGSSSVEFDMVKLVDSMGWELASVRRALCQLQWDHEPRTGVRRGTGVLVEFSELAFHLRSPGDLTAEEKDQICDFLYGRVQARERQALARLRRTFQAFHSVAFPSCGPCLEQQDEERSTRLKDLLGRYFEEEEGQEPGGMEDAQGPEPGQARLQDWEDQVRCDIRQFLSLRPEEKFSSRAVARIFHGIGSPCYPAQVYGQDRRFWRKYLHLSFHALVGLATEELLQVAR

Measured: binding result

CCATTCCACCCTCTATTTTTTTTTTTTTTT (ssDNA) [T3-Cy3]
binds: all assays above
